Our source for the Activation ratio (%) of methanol dehydrogenase activity (Δ OD 340 nm/min, reduction of NAD+) values is patent US6280972.

The test has as its target methanol dehydrogenase (MDH) of Bacillus brevis S1 strain (NCIMB No. 12524) (Bacillus brevis S1 strain).

Consider “methanol dehydrogenase activator YqkG of Bacillus subtilis (product of the yqkG / amd gene)”, for which the Activation ratio (%) of methanol dehydrogenase activity (Δ OD 340 nm/min, reduction of NAD+) was found to be 250%.
